Measured values published in patent US20030148956A1 (PROCTER AND GAMBLE, published 2003).
Ends that are not written are not given here.

T1: corticotropin releasing factor 2 receptor
T1 sequence (Q13324 whole entry, species assumed, looked up): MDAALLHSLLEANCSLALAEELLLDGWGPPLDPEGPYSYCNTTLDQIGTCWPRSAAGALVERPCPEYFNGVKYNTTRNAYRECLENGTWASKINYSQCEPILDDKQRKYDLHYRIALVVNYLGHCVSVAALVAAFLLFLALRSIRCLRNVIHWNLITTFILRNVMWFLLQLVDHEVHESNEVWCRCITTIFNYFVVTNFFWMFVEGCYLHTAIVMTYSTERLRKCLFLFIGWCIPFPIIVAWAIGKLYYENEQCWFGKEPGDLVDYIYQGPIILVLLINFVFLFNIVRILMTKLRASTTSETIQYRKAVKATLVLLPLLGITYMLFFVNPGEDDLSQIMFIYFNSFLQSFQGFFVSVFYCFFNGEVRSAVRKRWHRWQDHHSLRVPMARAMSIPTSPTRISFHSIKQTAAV


Tests used:
[1] = molecular target: T1, corticotropin releasing factor 2 …; assay: cell-based or functional assay
[2] = molecular target: corticotropin releasing factor 1 receptor; assay: cell-based or functional assay

CRF2R EC50 [1] [nM] | CRF2R Emax % [1] [%] | CRF1R EC50 [2] [nM] | CRF1R Emax % [2] [%] | Binder
> 100 | 60 | > 1000 | 10.2 | TKFTLSLDVPTNIMNLLFNIAKAKNLRAQAAANAHLMAQI (ends and bridges not checked) [human urocortin III fragment]
> 100 | 33 | 27.4 | 98 | SQEPPISLDLTFHLLREVLEMTKADQLAQQAHSNRKLLDIA (ends and bridges not checked) [ovine corticotropin releasing factor fragment]

Continued, binder first:

Binder | CRF2R EC50 [1] [nM] | CRF2R Emax % [1] [%] | CRF1R EC50 [2] [nM] | CRF1R Emax % [2] [%]
DNPSLSIDLTFHLLRTLLELARTQSQRERAEQNRIIFDSV (ends and bridges not checked) [human urocortin I fragment] | 3.52 | 100 | 9 | 100
IVLSLDVPIGLLQILLEQARARAAREQATTNARILARV (ends and bridges not checked) [human urocortin II fragment] | 3.64 | 98 | > 100 | 9
SEEPPISLDLTFHLLREVLEMARAEQLAQQAHSNRKLMEII (ends and bridges not checked) [human corticotropin releasing factor fragment] | 49.2 | 100 | 19.9 | 87
